Assay results taken from paper PMC5959852.

Assays:
[1] = biological target: TAZ1 (transcriptional adaptor zinc-binding 1) domain of CREB binding protein (CBP) (human) (UniProt Q92793); assay: stopped-flow fluorimetry (association kinetics); TAZ1 constant at 0.5-0.9 µM, Hif-1α CAD variant varied 1-15 µM; Trp-418 fluorescence of TAZ1; 293 K; 20 mM HEPES pH 6.9, 1 mM TCEP, 190 mM NaCl; apparent kon from the fast phase; Kd = koff^app/kon^app with koff^app from the displacement experiments
[2] = biological target: TAZ1 (transcriptional adaptor zinc-binding 1) domain of CREB binding protein (CBP) (human) (UniProt Q92793); assay: stopped-flow fluorimetry (displacement); complex TAZ1/Hif-1α CAD variant (0.75 µM/0.5 µM) mixed with excess TAZ1 W418Y (10-50 µM); kobs at excess equals apparent koff; 293 K; 20 mM HEPES pH 6.9, 1 mM TCEP, 190 mM NaCl
[3] = biological target: TAZ1 (transcriptional adaptor zinc-binding 1) domain of CREB binding protein (CBP) (human) (UniProt Q92793); assay: ITC; 15 µM TAZ1 in the cell, 149 µM Hif-1α CAD (L813A) in the syringe; 293 K; 20 mM HEPES pH 6.9, 1 mM TCEP, 190 mM NaCl; one-to-one model

Chain of Hif-1α CAD hydroxylated at Asn-803 (Q16665 776-826): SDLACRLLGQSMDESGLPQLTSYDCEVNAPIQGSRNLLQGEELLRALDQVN
Chain of C-terminal activation domain of hypoxia inducible factor 1α (Hif-1α CAD), wild type (Q16665 776-826): as above

Row | Substance | Kd [1] [nM] | kon [1] [M⁻¹ s⁻¹] | koff [2] [s⁻¹] | Kd [3] [nM]
1 | Hif-1α CAD I806V (from UniProt Q16665 776-826) (domain or fragment) | 5.93 | 9.73e+06 | 0.0577 | –
2 | Hif-1α CAD C780A (from UniProt Q16665 776-826) (domain or fragment) | 3.78 | 9.56e+06 | 0.0361 | –
3 | C-terminal activation domain of hypoxia inducible factor 1α (Hif-1α CAD), wild type (from UniProt Q16665 776-826) (domain or fragment) | 3.36 | 8.83e+06 | 0.0297 | –
4 | Hif-1α CAD L782A (from UniProt Q16665 776-826) (domain or fragment) | 4.56 | 7.36e+06 | 0.0336 | –
5 | Hif-1α CAD L818A (from UniProt Q16665 776-826) (domain or fragment) | 205 | 6.23e+06 | 1.27 | –
6 | Hif-1α CAD V825A (from UniProt Q16665 776-826) (domain or fragment) | 2.12 | 1.04e+07 | 0.022 | –
7 | Hif-1α CAD L778A (from UniProt Q16665 776-826) (domain or fragment) | 3.65 | 8.06e+06 | 0.0294 | –
8 | Hif-1α CAD T796S (from UniProt Q16665 776-826) (domain or fragment) | 3.23 | 8.27e+06 | 0.0267 | –
9 | Hif-1α CAD hydroxylated at Asn-803 (from UniProt Q16665 776-826) (domain or fragment) | 172 | 7.7e+06 | 1.32 | –
10 | Hif-1α CAD L819A (from UniProt Q16665 776-826) (domain or fragment) | 23.1 | 6.1e+06 | 0.141 | –
11 | Hif-1α CAD L813A (from UniProt Q16665 776-826) (domain or fragment) | 137 | 8.52e+06 | 1.17 | 144
12 | Hif-1α CAD L795A (from UniProt Q16665 776-826) (domain or fragment) | 1100 | 6.12e+06 | 6.74 | –

Continued by falling Kd [1], values first:

Row | Kd [1] [nM] | kon [1] [M⁻¹ s⁻¹] | koff [2] [s⁻¹] | Kd [3] [nM] | Substance
13 | 160 | 5.75e+06 | 0.92 | – | Hif-1α CAD L792A (from UniProt Q16665 776-826) (domain or fragment)
14 | 71.5 | 7.12e+06 | 0.509 | – | Hif-1α CAD L812A (from UniProt Q16665 776-826) (domain or fragment)
15 | 17.7 | 6.55e+06 | 0.116 | – | Hif-1α CAD C800A (from UniProt Q16665 776-826) (domain or fragment)
16 | 13.7 | 7.28e+06 | 0.0995 | – | Hif-1α CAD V802A (from UniProt Q16665 776-826) (domain or fragment)
17 | 4.83 | 6.7e+06 | 0.0324 | – | Hif-1α CAD M787A (from UniProt Q16665 776-826) (domain or fragment)
18 | 3.6 | 9.62e+06 | 0.0346 | – | Hif-1α CAD L783A (from UniProt Q16665 776-826) (domain or fragment)
